Laboratory results: patent US20240400717A1, “Antibody Binding to CHI3L1 for Treating Cancer” (National Cheng Kung University, priority 2021, published 2024)

Molecular target: T1, CHI3L1 binding to IL-13Rα2 on A549 cell line (Homo sapiens, UniProt P36222)
T1 construct: host or cells: A549 cells carry the receptor
Assay: Functional screen: block of CHI3L1 binding to IL-13Rα2 on A549 cell line
Assay type: cell-based
Settings: A549 cells, compared with CHI3L1 only
Description: CHI3L1 is known to associate with different receptors, such as IL-13Rα2 (He et al. 2013), CRTH2 (Zhou et al. 2015), TMEM219 (Lee et al. 2016), and galectin-3 (Zhou et al. 2015). […] Therefore, purified antibody leads were functionally screened for their ability to block CHI3L1 binding to IL-13Rα2 on A549 cell line (FIG. 3A). […] The sequences and defied CDR regions among those monoclonal antibodies are listed and summarized in the sequences list (SEQ ID NOs: 1 to 88) and Table 2, respectively. Anti-CHI3L1 clone R4-2 heavy chain (SEQ ID NO: 1), anti-CHI3L1 clone R4-2 light chain (SEQ ID NO: 2), anti-CHI3L1 clone R4-4 heavy chain (SEQ ID NO: 9), anti-CHI3L1 clone R4-4 light chain (SEQ ID NO: 10), anti-CHI3L1 clone R4-39 heavy chain (SEQ ID NO: 17), anti-CHI3L1 clone R4-39 light chain (SEQ ID NO: 18), anti-CHI3L1 clone R4-53 heavy chain (SEQ ID NO: 25), anti-CHI3L1 clone R4-53 light chain (SEQ ID NO: 26), anti-CHI3L1 clone R4-54 heavy chain (SEQ ID NO: 33), anti-CHI3L1 clone R4-54 light chain (SEQ ID NO: 34), anti-CHI3L1 clone R4-62 heavy chain (SEQ ID NO: 41), anti-CHI3L1 clone R4-62 light chain (SEQ ID NO: 42), anti-CHI3L1 clone R4-63 heavy chain (SEQ ID NO: 49), anti-CHI3L1 clone R4-63 light chain (SEQ ID NO: 50), anti-CHI3L1 clone R4-93 heavy chain (SEQ ID NO: 57), anti-CHI3L1 clone R4-93 light chain (SEQ ID NO: 58), anti-CHI3L1 clone 293R3-2 heavy chain (SEQ ID NO: 65), anti-CHI3L1 clone 293R3-2 light chain (SEQ ID NO: 66), anti-CHI3L1 clone 293R3-4 heavy chain (SEQ ID NO: 73), anti-CHI3L1 clone 293R3-4 light chain (SEQ ID NO: 74), anti-CHI3L1 clone 293R3-5 heavy chain (SEQ ID NO: 81), and anti-CHI3L1 clone 293R3-5 light chain (SEQ ID NO: 82) are shown in sequence listing.

T1 sequence (P36222 22-383): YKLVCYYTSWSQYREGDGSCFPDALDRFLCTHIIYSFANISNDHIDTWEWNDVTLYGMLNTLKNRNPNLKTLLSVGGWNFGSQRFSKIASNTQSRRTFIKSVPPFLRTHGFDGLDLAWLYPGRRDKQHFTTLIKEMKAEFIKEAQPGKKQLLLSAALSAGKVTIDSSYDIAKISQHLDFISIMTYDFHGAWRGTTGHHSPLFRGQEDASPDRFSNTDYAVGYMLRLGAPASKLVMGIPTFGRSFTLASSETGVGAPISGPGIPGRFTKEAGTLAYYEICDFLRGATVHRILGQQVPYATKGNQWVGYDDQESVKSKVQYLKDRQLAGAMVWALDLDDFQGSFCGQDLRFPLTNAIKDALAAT

| CHI3L1 neutralizing activity | Molecule |
| --- | --- |
| best neutralizing activity | #R4-62: fully human anti-CHI3L1 mAb, Table 1 No. 37; heavy chain SEQ ID NO: 41, light chain SEQ ID NO: 42 (antibody, listed as Homo sapiens) VH: EVQLVESGGGLVQPGGSLRLSCAASGLTFPNFAMTWVRQTPGKGLQWVSTISGRGDEPFYADSVKGRFTISRDNSKNMVYLHMNSLRAEDTAIYYCAKGGHFSSWDYWGQGTLVTVSS light: NFMLTQPHSVSESPGKTVTISCTRSSGSIASNYVQWYQQRPDSAPTTVIYEDIERPSGVPDRFSGAIDSSANSASLTISGLQTEDEADYYCQSYDSSSYVFGTGTKVTVLGQPKANPTVTLFPPSSEELQANKATLVCLISDFYPGAVTVAWKADGSPVKAGVETTKPSKQSNNKYAASSYLSLTPEQWKSHRSYSCQVTHEGSTVEKTVAPTECS |
| best neutralizing activity | #293R3-5: fully human anti-CHI3L1 mAb, Table 1 No. 5; heavy chain SEQ ID NO: 81, light chain SEQ ID NO: 82 (antibody, listed as Homo sapiens) VH: EVQLVQSGAGVKKPGATVKISCKVSGYTFTDYYMHWVQQAPGKGLEWMGLVDPEDGETIYAEKFQGRVTITADTSTDTAYMELSSLRSEDTAVYYCATASPREEMPYYFDYWGQGTLVTVSS light: SYELTQPPSVSVSPGQTASITCSGDILADQYASWYQQKPGQSPVLVIYHDTKRPSGVPERFSGSTSGNTATLTISGTQAMDEAAYYCQAWDINTAWVFGGGTQLTVLGQPKAAPSVTLFPPSSEELQANKATLVCLISDFYPGAVTVAWKADSSPVKAGVETTTPSKQSNNKYAASSYLSLTPEQWKSHRSYSCQVTHEGSTVEKTVAPTECS |

The next lines start with the molecule.

| Molecule | CHI3L1 neutralizing activity |
| --- | --- |
| #R4-63: fully human anti-CHI3L1 mAb, Table 1 No. 38; heavy chain SEQ ID NO: 49, light chain SEQ ID NO: 50 (antibody, listed as Homo sapiens) VH: EVQLVQSGAEVKKPGATVKISCKVSGYTFTDYYMHWVQQAPGKGLEWMGLVDPEDGETIYAEKFQGRVTITADTSTDTAYMELSSLRSEDTAVYYCATIGRPPDYWGQGTTVTVSS light: QSVLTQPPSVSAAPGQKVTISCSGSSSNIGNNYVSWYQQLPGTAPKLLIYDNNKRPSGIPDRFSGSKSGTSATLGITGLQTGDEADYYCGTWDSSLSVWVFGGGTKLTVLGQPKAAPSVTLFPPSSEELQANKATLVCLISDFYPGAVTVAWKADSSPVKAGVETTTPSKQSNNKYAASSYLSLTPEQWKSHKSYSCQVTHEGSTVEKTVAPTECS | best neutralizing activity |
| #R4-53: fully human anti-CHI3L1 mAb, Table 1 No. 33; heavy chain SEQ ID NO: 25, light chain SEQ ID NO: 26 (antibody, listed as Homo sapiens) VH: QVQLVQSGAEVKKPGASVKVSCKASGYTFTSYYMHWVRQAPGQGLEWMGIINPSGGSTSYAQKFQGRVTMTRDTSTSTVYMELSSLRSEDTAVYYCASDIGDYGDYWGQGTTVTVSS light: SYVLTQPPSVSVALGQTARITCGGNNIESKIVSWYQQKPGQAPVLVIFYDTDRPSGISERFSGSNSGNTATLTISRVEAGDEADYYCQVWDSNSDHVIFGGGTKLTVLGQPKAAPSVTLFPPSSEELQANKATLVCLISDFYPGAVTVAWKADSSPVKAGVETTTPSKQSNNKYAASSYLSLTPEQWKSHRSYSCQVTHEGSTVEKTVAPTECS | best neutralizing activity |
| #R4-2: fully human anti-CHI3L1 mAb, Table 1 No. 7; heavy chain SEQ ID NO: 1, light chain SEQ ID NO: 2 (antibody, listed as Homo sapiens) heavy: QVQLVQSGAEVKKPGSSVKVSCKASGGTFSSYAISWVRQAPGQGLEWMGGIIPIFGTANYAQKFQGRVTITADESTSTAYMELSSLRSEDTAVYYCARGDIEYYDILTGYYYYFDYWGQGTLVTVSS light: SYVLTQPPSVSVAPGKAARVTCGGNDIGSKSVQWYQQKPGQAPVLVISYDNDRPSGIPERFSGSNSGNTATLTISRVEAGDEADYYCQVWDSTSDHYVFGTGTKVTVQGQPKANPTVTLFPPSSEELQANKATLVCLISDFYPGAVTVAWKADSSPVKAGVETTTPSKQSNNKYAASSYLSLTPEQWKSHRSYSCQVTHEGSTVEKTVAPTECS | best neutralizing activity |
